Experimental data from patent US20120107932A1 (published 2012).

What follows are binders tested against PRRS virus (PRRSV) (assay: cell-based or functional assay).

| Binder | CPE caused by PRRSV on Marc-145 and PAM cells, blocker at 1 µg/well ('++' means CPE in 50% cells) |
| --- | --- |
| KADGAEAKPAE [NMHC II-A artificial polypeptide (Seq ID No: 4)] | 50 % cells with CPE |
| GAGDGSDEEVDGKA [NMHC II-A artificial polypeptide (Seq ID No: 3)] | 50 % cells with CPE |
| GAGDGSDEE [NMHC II-A artificial polypeptide (Seq ID No: 2)] | 50 % cells with CPE |
